Patent US20200079833A1 (AstraZeneca / MedImmune, published 2020)
Starred links: 1 amine or outer side, 2 acyl side, 3 side chain; linkers in the order of their positions; H or OH if unused. Non-standard residues stand in square brackets, D forms with d. Groups on a side chain read outwards from the residue. Primed or numbered codes have the meaning given here. No end group written: not given here. *: point of attachment. γGlu = O=C(O)[C@H](CCC(=O)[*:2])N[*:1]; αMeF = C[C@](N)(Cc1ccccc1)C(=O)O; αMeK = C[C@](N)(CCCCN)C(=O)O; Lauroyl = CCCCCCCCCCCC(=O)*; αMeS = C[C@](N)(CO)C(=O)O; PEG2′ = not defined here; Aib = CC(C)(N)C(=O)O

Key:
Experiment in all cases: cell-based or functional assay
[1] = target: GLP-1 receptor (GLP-1R), primary cAMP assay cell line (human, UniProt P43220 24-463)
[2] = target: glucagon receptor (GCGR), primary cAMP assay cell line (human, UniProt P47871 26-477)
[3] = target: T1, glucose-dependent insulinotropic peptide (gastric inhibitory polypeptide) receptor (GIPR), primary cAMP assay … (human, UniProt P48546 22-466)
T1 sequence (looked up): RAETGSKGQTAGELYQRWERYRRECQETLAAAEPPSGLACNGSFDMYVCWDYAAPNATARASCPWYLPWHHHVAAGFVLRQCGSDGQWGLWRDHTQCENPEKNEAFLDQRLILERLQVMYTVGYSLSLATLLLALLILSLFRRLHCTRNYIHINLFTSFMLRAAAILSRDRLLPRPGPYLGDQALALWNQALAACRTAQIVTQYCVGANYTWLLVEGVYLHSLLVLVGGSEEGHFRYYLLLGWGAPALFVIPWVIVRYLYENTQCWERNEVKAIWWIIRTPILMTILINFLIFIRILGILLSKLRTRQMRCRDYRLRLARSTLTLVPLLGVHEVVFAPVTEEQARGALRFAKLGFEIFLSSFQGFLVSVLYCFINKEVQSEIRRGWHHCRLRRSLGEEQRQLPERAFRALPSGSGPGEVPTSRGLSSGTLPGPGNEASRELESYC

[4] = target: T2, GLP-1R in the INS1e assay (UniProt P32301 22-463, limits assumed)
T2 sequence (looked up): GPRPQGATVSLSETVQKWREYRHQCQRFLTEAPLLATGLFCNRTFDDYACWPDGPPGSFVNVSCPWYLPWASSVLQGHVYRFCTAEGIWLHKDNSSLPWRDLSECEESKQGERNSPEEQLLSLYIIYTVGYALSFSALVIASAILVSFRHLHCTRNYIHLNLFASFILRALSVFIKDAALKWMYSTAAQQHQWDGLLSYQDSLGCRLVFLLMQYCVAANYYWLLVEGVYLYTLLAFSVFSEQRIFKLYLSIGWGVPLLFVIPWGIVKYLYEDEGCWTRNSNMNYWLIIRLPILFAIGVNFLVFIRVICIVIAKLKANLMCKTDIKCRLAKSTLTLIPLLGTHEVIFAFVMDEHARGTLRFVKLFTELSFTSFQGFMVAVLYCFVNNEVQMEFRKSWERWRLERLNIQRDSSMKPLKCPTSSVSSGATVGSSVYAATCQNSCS

glucagon receptor (GCGR), primary cAMP assay cell line, sequence (P47871 26-477): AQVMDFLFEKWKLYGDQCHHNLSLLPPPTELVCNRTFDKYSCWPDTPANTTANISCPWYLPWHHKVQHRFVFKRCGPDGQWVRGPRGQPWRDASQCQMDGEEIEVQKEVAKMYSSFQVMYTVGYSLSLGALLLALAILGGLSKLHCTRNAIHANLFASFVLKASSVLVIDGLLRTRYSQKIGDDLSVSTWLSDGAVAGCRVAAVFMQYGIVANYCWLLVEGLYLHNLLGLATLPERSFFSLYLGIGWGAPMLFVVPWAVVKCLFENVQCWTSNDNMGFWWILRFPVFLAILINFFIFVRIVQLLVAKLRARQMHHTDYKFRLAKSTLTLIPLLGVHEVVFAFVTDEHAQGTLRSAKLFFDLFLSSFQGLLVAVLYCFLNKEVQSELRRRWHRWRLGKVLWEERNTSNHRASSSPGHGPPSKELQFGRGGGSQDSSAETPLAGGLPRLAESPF

What does the source list for H[Aib]EGS[αMeF]TSDV[αMeS]SK([PEG2′-PEG2′-γGlu-Lauroyl])LEGEAA[αMeK]K([PEG2′-PEG2′-γGlu-Lauroyl])FIAFK([PEG2′-PEG2′-γGlu-Lauroyl])VEGG-NH2 [SEQ ID NO: 482]?
cAMP Primary assay EC50, Mean pM GLP-1R [1]: 36.3 pM; cAMP Primary assay EC50, n1 [1]: 0.0283 nM; cAMP Primary assay EC50, n2 [1]: 0.0442 nM; cAMP Primary assay EC50, n1 [2]: 20 nM; cAMP Primary assay EC50, n2 [2]: 20 nM; cAMP Primary assay EC50, n1 [3]: 20 nM; cAMP Primary assay EC50, n2 [3]: 20 nM; cAMP INS1e assay EC50, Mean pM GLP-1R [4]: 5860 pM; cAMP INS1e assay EC50, n1 [4]: 8.57 nM; cAMP INS1e assay EC50, n2 [4]: 3.15 nM
